This data set deals with the molecule itself. The data set is described as follows: size exclusion chromatography and negative stain EM (self-association of trimers). In general terms: In gel filtration, larger molecules generally elute earlier.

B1: gB-698 (CMV gB ectodomain residues 1-698 with fusion loop, furin site and C246S mutations, C-terminal 6-His tag) (other)
chain: VSSSSTRGTSATHSHHSSHTTSAAHSRSGSVSQRVTSSQTVSHGVNETIYNTTLKYGDVVGVNTTKYPYRVCSMAQGTDLIRFERNIVCTSMKPINEDLDEGIMVVYKRNIVAHTFKVRVYQKVLTFRRSYAYHRTTYLLGSNTEYVAPPMWEIHHINSHSQCYSSYSRVIAGTVFVAYHRDSYENKTMQLMPDDYSNTHSTRYVTVKDQWHSRGSTRLYRETSNLNCMVTITTARSKYPYHFFATSTGDVVDISPFYNGTNRNASYFGENADKFFIFPNYTIVSDFGRPNSALETHRLVAFLERADSVISWDIQDEKNVTCQLTFWEASERTIRSEAEDSYHFSSAKMTATFLSKKQEVNMSDSALDCVRDEAINKLQQIFNTSYNQTYEKYGNVSVFETTGGLVVFWQGIKQKSLVELERLANRSSLNLTHNSTKSSTDGNNATHLSNMESVHNLVYAQLQFTYDTLRGYINRALAQIAEAWCVDQRRTLEVFKELSKINPSAILSAIYNKPIAARFMGDVLGLASCVTINQTSVKVLRDMNVKESPGRCYSRPVVIFNFANSSYVQYGQLGEDNEILLGNHRTEECQLPSLKIFIAGNSAYEYVDYLFKRMIDLSSISTVDSMIALDIDPLENTDFRVLELYSQKELRSSNVFDLEEIMREFNSYKQRVKYVEHHHHHH
notes: Expressed in 293GnTI- cells; The trimer pairs into a dimeric trimer of six subunits
B1: the binding result is “binds”.

These data come from patent US20180265551A1 (GlaxoSmithKline, published 2018).
